From patent KR20230128271A (dated 2023) come the findings set out here.

For this assay, the target named is T1, human recombinant HER3 (coated on ELISA plate) (human, UniProt P21860 20-643).
T1 construct: also called 인간 재조합 HER3
The assay can be described thus: ELISA; plate coated with human recombinant HER3; serial dilutions 0-100 μg/ml; goat anti-human IgG F(ab')2-HRP; absorbance at 450 nm. Background: An ELISA detects its analyte on a solid surface through an enzyme-linked reagent.

T1 sequence (P21860 20-643 limits assumed): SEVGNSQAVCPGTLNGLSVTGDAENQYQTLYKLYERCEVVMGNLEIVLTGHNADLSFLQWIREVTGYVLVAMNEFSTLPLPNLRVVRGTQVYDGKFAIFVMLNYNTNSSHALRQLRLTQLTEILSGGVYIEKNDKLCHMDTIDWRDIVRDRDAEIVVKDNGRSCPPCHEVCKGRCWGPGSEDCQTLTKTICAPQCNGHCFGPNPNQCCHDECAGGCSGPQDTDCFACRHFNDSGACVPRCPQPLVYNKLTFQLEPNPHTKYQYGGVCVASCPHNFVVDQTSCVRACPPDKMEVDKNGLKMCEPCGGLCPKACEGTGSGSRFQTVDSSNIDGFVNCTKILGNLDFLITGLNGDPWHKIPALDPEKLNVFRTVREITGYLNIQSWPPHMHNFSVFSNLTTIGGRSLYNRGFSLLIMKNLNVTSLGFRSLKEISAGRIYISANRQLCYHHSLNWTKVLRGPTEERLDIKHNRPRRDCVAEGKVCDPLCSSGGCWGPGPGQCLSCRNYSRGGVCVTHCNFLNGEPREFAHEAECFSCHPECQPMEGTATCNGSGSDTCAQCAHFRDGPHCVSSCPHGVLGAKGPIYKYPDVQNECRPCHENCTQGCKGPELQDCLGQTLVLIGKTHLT

B1: 225Ac-HER3-ARC (Ac225-labelled, DOTA-conjugated anti-HER3 monoclonal antibody, heavy chain SEQ ID NO: 77 and light chain SEQ ID NO: 78) (antibody, V domains shown)
VH: QVQLVESGGGLVKPGGSLRLSCAASGFTFSDYAMSWIRQAPGKGLEWVSTISDGGTYTYYPDSVKGRFTISRDNAKNSLYLQMNSLRAEDTAVYYCAREWGDYDGFDYWGQGTLVTVSS
VL: DIQMTQSPSSLSASVGDRVTITCRASQEISGYLSWYQQKPGKAPKRLIYAASTLDSGVPSRFSGSGSGTEFTLTISSLQPEDFATYYCLQYDSYPYTFGQGTKLEIKR
modifications: DOTA chelator conjugated with p-SCN-Bn-DOTA and chelating actinium-225; sites and chain not stated
notes: also called Ac225 표지된 DOTA-접합된 항-HER3 모노클로날 항체
For B1, the EC50 (usually the concentration at which the effect is half-maximal) was 1.7 ng/mL.

B2: anti-HER3 IgG monoclonal antibody consisting of heavy chain SEQ ID NO: 77 and light chain SEQ ID NO: 78 (unmodified) (antibody, V domains shown)
VH: QVQLVESGGGLVKPGGSLRLSCAASGFTFSDYAMSWIRQAPGKGLEWVSTISDGGTYTYYPDSVKGRFTISRDNAKNSLYLQMNSLRAEDTAVYYCAREWGDYDGFDYWGQGTLVTVSS
VL: DIQMTQSPSSLSASVGDRVTITCRASQEISGYLSWYQQKPGKAPKRLIYAASTLDSGVPSRFSGSGSGTEFTLTISSLQPEDFATYYCLQYDSYPYTFGQGTKLEIKR
notes: It was detected with goat anti-human IgG F(ab')2-HRP; also called 항-HER3; 비변형된 항-HER3 mAb
B2: the EC50 worked out at 2.2 ng/mL.
